# Test results taken from patent publication US20240101668A1 (WUGEN, published 2024).
# Numbering of substitutions follows the chain as printed.
# B1: Polypeptide No. 212 (scFv, V domains shown)
# VH: QVQLVQSGAEVKKPGSSVKVSCKASGYTFTGYYMHWVRQAPGQGLEWMGGIIPILGTANNAQKFQGRVTITADESTSTAYMELSSLRSEDTAVYYCARAPWGTFDYWGQGTLVTVSS
# VL: EIVMTQSPATLSVSPGERATLSCRASQSVSSSQLAWYQQKPGQAPRLLIYDTSTRATGIPARFSGSGSGTEFTLTISSLQSEDFAVYYCQQYDNSLWTFGQGTRLEIKR
# notes: scFv
# B2: Polypeptide No. 208 (scFv, V domains shown)
# VH: QVQLVQSGAEVKKPGASVKVSCKASGGTFSSRSISWVRQAPGQGLEWMGIINPSGGGTLYAQKFQGRVTMTRDTSTSTVYMELSSLRSEDTAVYYCAKDMDGWSDAFDIWGQGTTVTVSS
# VL: EIVMTQSPATLSVSPGERATLSCRASQSLSNIYLAWYQQKPGQAPRLLIYDVSSRAAGIPARFSGSGSGTEFTLTISSLQSEDFAVYYCQQYATSPLTFGGGTKVEIKR
# notes: scFv
# B3: Polypeptide No. 207 (scFv, V domains shown)
# VH: QVQLVQSGAEVKKPGASVKVSCKASGYTFTNYYMHWVRQAPGQGLEWMGWMNPNSGNTGYAQRFQGRVTMTRDTSTSTVYMELSSLRSEDTAVYYCAKSHYYYFYGMDVWGQGTTVTVSS
# VL: DIQMTQSPSSLSASVGDRVTITCQASHDISKYLNWYQQKPGKAPKLLIYAASILQSGVPSRFSGSGSGTDFTLTISSLQPEDFATYYCQQSYSTPYTFGQGTKLEIKR
# notes: scFv
# B4: Polypeptide No. 129 (scFv, V domains shown)
# VH: EVQLVESGGGLVKPGGSLRLSCAASGFSLRNYWMHWVRQAPGKGLEWVSGISGSGGSTYYADSVKGRFTISRDDSKNTLYLQMNSLKTEDTAVYYCARDYTGVVDYWGQGTLVTVSS
# VL: not shown
# notes: scFv
# B5: Polypeptide No. 135 (scFv, V domains shown)
# VH: QVQLVQSGAEVKKPGASVKVSCKASGYSFTTYGITWVRQAPGQGLEWMGWINPNSGNAGYAQKFQGRVTMTRDTSTSTVYMELSSLRSEDTAVYYCASDLAGYSSGYFDLWGRGTLVTVSS
# VL: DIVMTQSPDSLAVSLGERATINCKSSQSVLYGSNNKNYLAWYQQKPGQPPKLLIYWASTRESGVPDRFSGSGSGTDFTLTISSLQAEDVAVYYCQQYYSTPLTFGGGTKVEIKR
# notes: scFv
# B6: Polypeptide No. 142 (scFv, V domains shown)
# VH: EVQLLESGGGLVQPGGSLRLSCAASGFTFSSYWMHWVRQAPGKGLEWVAVISYDGSDKYYADSVKGRFTISRDNSKNTLYLQMNSLRAEDTAVYYCARGLGGTTGTADFDYWGQGTLVTVSS
# VL: not shown
# notes: scFv
# B7: Polypeptide No. 141 (scFv, V domains shown)
# VH: QVQLVQSGAEVKKPGASVKVSCKASGGTFSSYAISWVRQAPGQGLEWMGVISPNGDTTVYAQKFQGRVTMTRDTSTSTVYMELSSLRSEDTAVYYCARDRGVAHSYYYGMDVWGQGTLVTVSS
# VL: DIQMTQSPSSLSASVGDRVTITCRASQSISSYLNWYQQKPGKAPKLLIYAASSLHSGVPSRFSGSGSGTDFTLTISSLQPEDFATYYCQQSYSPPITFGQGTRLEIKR
# notes: scFv
# B8: Polypeptide No. 131 (scFv, V domains shown)
# VH: QVQLVQSGAEVKKPGASVKVSCKASGGTFSNYAINWVRQAPGQGLEWMGWINPNSGGTDSAQKFQGRVTMTRDTSTSTVYMELSSLRSEDTAVYYCARDSSLALSYGGNSEYYYGMDVWGQGTTVTVSS
# VL: B3 VL with H27Q, K31D, Y32H, A50G, I53T, S91A, T94F, Y96W
# notes: scFv
# B9: Polypeptide No. 132 (scFv, V domains shown)
# VH: EVQLLESGGGLVQPGGSLRLSCAASGFTFNNYGMHWVRQAPGKGLEWVSAISGSGGSTYYADSVKGRFTISRDNSKNTLYLQMNSLRAEDTAVYYCAREYMQQPHGGMDVWGQGTTVTVSS
# VL: EIVMTQSPATLSVSPGERATLSCRASQSVNSYLAWYQQKPGQAPRLLIYGASTRATGIPARFSGSGSGTEFTLTISSLQSEDFAVYYCQQYGSSPLSFGGGTKVEIKR
# notes: scFv
# B10: Polypeptide No. 138 (scFv, V domains shown)
# VH: QVQLVQSGAEVKKPGASVKVSCKASGYTFSSYDMHWVRQAPGQGLEWMGVINPGGGYTNYAQKFQGRVTMTRDTSTSTVYMELSSLRSEDTAVYYCARDEGWELLLDYWGQGTLVTVSS
# VL: B9 VL with N30G, Y32N, Y91S, G92H, S94L, L96P, S97T, G100Q, K103R, V104L
# notes: scFv
# B11: Polypeptide No. 130 (scFv, V domains shown)
# VH: QVQLVQSGAEVKKPGASVKVSCKASGGTFSNYAISWVRQAPGQGLEWMAWMNPNSGNTGYAQKFQGRVTMTRDTSTSTVYMELSSLRSEDTAVYYCARDGFIGFGELFSAFDIWGQGTMVTVSS
# VL: DIQMTQSPSSLSASVGDRVTITCRASQSIGTWLAWYQQKPGKAPKLLIYGATRLLSGVPSRFSGSGSGTDFTLTISSLQPEDFATYYCQQSYSTPPTFGQGTKLEIKR
# notes: scFv
# B12: Polypeptide No. 128 (scFv, V domains shown)
# VH: QVQLVQSGAEVKKPGASVKVSCKASGYTFTNYYIHWVRQAPGQGLEWLGWTNPINGDTGSAQKFQGRVTMTRDTSTSTVYMELSSLRSEDTAVYYCAKEGQLAWADYYYYMDVWGKGTTVTVSS
# VL: B3 VL with Q24R, H27Q, D28G, K31S, Y32A, N34A, I53S, Y96L, Q100G, L104V
# notes: scFv
# B13: Polypeptide No. 137 (scFv, V domains shown)
# VH: QVQLVQSGAEVKKPGASVKVSCKASGYTFTDYYIHWVRQAPGQGLEWMGMVNPSGGSANYAQKFQGRVTMTRDTSTSTVYMELSSLRSEDTAVYYCAKDSAWQEPYYFDYWGQGTLVTVSS
# VL: DIQMTQSPSSLSASVGDRVTITCRASQGISSYLAWYQQKPGKAPKLLIYDASNLDTGVPSRFSGSGSGTDFTLTISSLQPEDFATYYCQQSYSTPLTFGGGTKVEIKR
# notes: scFv
# B14: Polypeptide No. 134 (scFv, V domains shown)
# VH: QVQLVQSGAEVKKPGASVKVSCKASGYTFDSYLLHWVRQAPGQGLEWMGMINPSGAGTTYAQKFQGRVTMTRDTSTSTVYMELSSLRSEDTAVYYCAKEGSIAAGYYFDSWGQGTLVTVSS
# VL: B13 VL with G28S, S30D, Y32W, D50A, N53S, D55Q, T56S, S93T, L96I
# notes: scFv
# B15: Polypeptide No. 143 (scFv, V domains shown)
# VH: QVQLVQSGAEVKKPGASVKVSCKASGYTFTGYYMHWVRQAPGQGLEWMGWMNANSGNTGFAQKFQGRVTMTRDTSTSTVYMELSSLRSEDTAVYYCARDSSSWLSGGGWFDPWGQGTLVTVSS
# VL: B11 VL with W32Y, A34S, G50A, T52S, R53S, L55Q, T94S, P96I
# notes: scFv
# B16: Polypeptide No. 139 (scFv, V domains shown)
# VH: QVQLVQSGAEVKKPGASVKVSCKASGYTLSDHDINWVRQAPGQGLEWMGWMNPSTGNTGYAQKFQGRVTMTRDTSTSTVYMELSSLRSEDTAVYYCERDQLRFGAWFDPWGQGTLVTVSS
# VL: B13 VL with S30R, S31N, D50A, N53S, D55Q, T56S, T94I
# notes: scFv
# B17: Polypeptide No. 133 (scFv, V domains shown)
# VH: EVQLLESGGGLVQPGGSLRLSCAASGFTFSSSWMHWVRQAPGKGLEWVSAISSSGDATYYADSVKGRFTISRDNSKNTLYLQMNSLRAEDTAVYYCAKFSDGGAGDSDYWGQGTLVTVSS
# VL: DIQMTQSPSSLSASVGDRVTITCRASQGISSYLAWYQQKPGKAPKLLIYTASSLQSGVPSRFSGSGSGTDFTLTISSLQPEDFATYYCQQYDNLPITFGQGTRLEIKR
# notes: scFv
# B18: Polypeptide No. 140 (scFv, V domains shown)
# VH: EVQLVESGGGLVKPGGSLRLSCAASGITVSSSWMHWVRQAPGKGLEWVSAIGTGGGTHYADSVKGRFTISRDDSKNTLYLQMNSLKTEDTAVYYCARDQGGQIDHWGQGTLVTVSS
# VL: B13 VL with G28S, Y32W, N53T, D55Q, T56S, T94I
# notes: scFv
# B19: Polypeptide No. 136 (scFv, V domains shown)
# VH: QVQLVQSGAEVKKPGASVKVSCKASGDTLTNHFVHWVRQAPGQGLEWMGWMNPNSGNTGYAQKFQGRVTMTRDTSTSTVYMELSSLRSEDTAVYYCARDPQMGAVAGGFDYWGQGTLVTVSS
# VL: DIQMTQSPSSLSASVGDRVTITCRASQRIGNWLAWYQQKPGKAPKLLIYAASSLQSGVPSRFSGSGSGTDFTLTISSLQPEDFATYYCQQSYSPPLTFGPGTKVDIKR
# notes: scFv
# Target: T1, huFLT3-M227 stably expressed on Ramos cells (human, UniProt P36888 27-993)
# T1 construct: whole, on cells; also called FLT3 Mutant
# Assay: FACS on cells
row,FACS geometric mean fold change over Jurkat parental [fold],Binder
1,10 to 30,B1
2,10 to 30,B2
3,10 to 30,B3

# Target: T2, huFLT3-T227 stably expressed on Ramos cells (human, UniProt P36888 27-993)
# T2 construct: whole, on cells; also called FLT3 WT
# Assay: FACS on cells
row,FACS geometric mean fold change over Jurkat parental [fold],Binder
1,10 to 30,B1
2,10 to 30,B2
3,10 to 30,B3

# Target: T3, huCD33-R69 stably expressed on Jurkat cells (human, UniProt P20138 18-364)
# T3 construct: whole, on cells; >200,000 receptors per cell; also called CD33 WT; CD33^ARG69
# T3 sequence (P20138 18-364): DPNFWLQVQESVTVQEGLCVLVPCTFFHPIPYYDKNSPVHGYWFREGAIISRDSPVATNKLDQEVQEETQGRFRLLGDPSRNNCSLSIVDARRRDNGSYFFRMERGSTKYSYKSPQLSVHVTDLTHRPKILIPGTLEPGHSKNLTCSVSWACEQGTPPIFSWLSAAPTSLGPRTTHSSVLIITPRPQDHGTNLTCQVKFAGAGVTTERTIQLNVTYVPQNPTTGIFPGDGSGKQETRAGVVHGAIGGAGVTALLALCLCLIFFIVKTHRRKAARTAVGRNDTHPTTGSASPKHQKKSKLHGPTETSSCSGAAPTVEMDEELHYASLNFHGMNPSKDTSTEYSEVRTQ
# Assay: FACS on cells
row,FACS geometric mean fold change over Jurkat parental [fold],Binder
1,10 to 30,B4
2,10 to 30,B5
3,2 to 10,B6
4,10 to 30,B7
5,> 30,B8
6,2 to 10,B9
7,10 to 30,B10
8,10 to 30,B11
9,10 to 30,B12
10,> 30,B13
11,> 30,B14
12,2 to 10,B15
13,> 30,B16
14,2 to 10,B17
15,2 to 10,B18
16,10 to 30,B19

# Target: T4, huCD33-G69 stably expressed on Jurkat cells (human, UniProt P20138 18-364)
# T4 construct: whole, on cells; >200,000 receptors per cell; also called CD33 Mutant; CD33 R69G
# T4 sequence (P20138 18-364 R69G): as the sequence (P20138 18-364) above, with R52G counted along it
# Assay: FACS on cells
row,FACS geometric mean fold change over Jurkat parental [fold],Binder
1,10 to 30,B4
2,> 30,B5
3,2 to 10,B6
4,> 30,B7
5,10 to 30,B8
6,10 to 30,B9
7,10 to 30,B10
8,10 to 30,B11
9,10 to 30,B12
10,> 30,B13
11,> 30,B14
12,2 to 10,B15
13,> 30,B16
14,2 to 10,B17
15,2 to 10,B18
16,10 to 30,B19

# Target: T5, huCD33-G69-Fc recombinant protein (human, UniProt P20138 18-259);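 further: biolayer interferometry: scFvs captured from periplasmic extracts on anti-V5-loaded streptavidin biosensors, antigen association for 2 min, buffer dissociation for 5 min, 1:1 Langmuir fit giving off-rate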
# T5 construct: extracellular domain; also called CD33 R69G
# T5 sequence (P20138 18-259 R69G): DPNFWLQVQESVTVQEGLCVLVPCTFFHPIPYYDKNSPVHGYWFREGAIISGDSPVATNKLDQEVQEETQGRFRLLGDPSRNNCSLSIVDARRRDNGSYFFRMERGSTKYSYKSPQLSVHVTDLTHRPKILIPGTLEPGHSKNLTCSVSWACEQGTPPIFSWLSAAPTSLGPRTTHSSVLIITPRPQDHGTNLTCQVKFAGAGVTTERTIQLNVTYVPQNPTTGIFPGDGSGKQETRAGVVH
# Assay: BLI
# Protocol: Discovered scFvs were analyzed for binding to huCD33-R69-His or huCD33-G69-Fc recombinant proteins (for anti-CD33 scFvs; for CLL-1 scFvs, huCLL1-K244-Avi-Tev-His or huCLL1-Q244-Avi-Tev-His were used; for FLT3, huFLT3-T227-His or huFLT3-M227-Fc were used) using BLI on a ForteBio Octet HTX instrument. Streptavidin-coated biosensors were loaded with biotinylated anti-V5 tag monoclonal antibody for 5 min and were then quenched and blocked with 20 μM amine-PEG2-Biotin for 5 min. scFvs were captured on biosensors from scFv clone periplasmic extracts. huCD33 (or huCLL-1, or huFLT3) proteins were then associated with the captured scFvs for 2 minutes, followed by dissociation with buffer (1×HBST [10 mM HEPES pH 7.4, 150 mM NaCl, 0.05% Tween-20], 1 g/L BSA) for 5 minutes. […] Data was fitted with 1:1 Langmuir equation and off-rate values were reported.
row,binding result,Binder
1,binds,B4
2,binds,B5
3,binds,B6
4,binds,B7
5,binds,B8
6,binds,B9
7,binds,B10
8,binds,B11
9,binds,B12
10,binds,B13
11,binds,B14
12,binds,B15
13,binds,B16
14,binds,B17
15,binds,B18
16,binds,B19
